T1: AtNAT4 (Arabidopsis thaliana, UniProt P93039)
T1 construct: gene NAT4; full-length cDNA from transporter library, cRNA expressed in Xenopus laevis oocytes
T1 sequence (P93039 1-526): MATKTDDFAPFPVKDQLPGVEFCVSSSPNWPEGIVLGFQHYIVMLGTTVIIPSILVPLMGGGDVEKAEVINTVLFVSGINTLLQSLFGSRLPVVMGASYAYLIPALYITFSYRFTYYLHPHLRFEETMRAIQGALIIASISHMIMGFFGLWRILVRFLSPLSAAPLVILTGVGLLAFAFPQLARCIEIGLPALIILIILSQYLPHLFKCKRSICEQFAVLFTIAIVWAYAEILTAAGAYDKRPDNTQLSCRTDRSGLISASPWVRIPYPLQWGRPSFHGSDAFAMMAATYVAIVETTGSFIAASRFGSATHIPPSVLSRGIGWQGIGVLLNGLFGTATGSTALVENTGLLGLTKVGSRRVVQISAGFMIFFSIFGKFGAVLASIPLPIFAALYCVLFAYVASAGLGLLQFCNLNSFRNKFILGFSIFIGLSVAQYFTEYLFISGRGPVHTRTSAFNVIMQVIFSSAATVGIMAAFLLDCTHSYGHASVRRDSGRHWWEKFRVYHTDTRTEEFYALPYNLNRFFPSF

T2: AtNPF2.9 (Arabidopsis thaliana, UniProt Q9M9V7)
T2 construct: gene NPF2.9; full-length cDNA from transporter library, cRNA expressed in Xenopus laevis oocytes
T2 sequence (Q9M9V7 1-587): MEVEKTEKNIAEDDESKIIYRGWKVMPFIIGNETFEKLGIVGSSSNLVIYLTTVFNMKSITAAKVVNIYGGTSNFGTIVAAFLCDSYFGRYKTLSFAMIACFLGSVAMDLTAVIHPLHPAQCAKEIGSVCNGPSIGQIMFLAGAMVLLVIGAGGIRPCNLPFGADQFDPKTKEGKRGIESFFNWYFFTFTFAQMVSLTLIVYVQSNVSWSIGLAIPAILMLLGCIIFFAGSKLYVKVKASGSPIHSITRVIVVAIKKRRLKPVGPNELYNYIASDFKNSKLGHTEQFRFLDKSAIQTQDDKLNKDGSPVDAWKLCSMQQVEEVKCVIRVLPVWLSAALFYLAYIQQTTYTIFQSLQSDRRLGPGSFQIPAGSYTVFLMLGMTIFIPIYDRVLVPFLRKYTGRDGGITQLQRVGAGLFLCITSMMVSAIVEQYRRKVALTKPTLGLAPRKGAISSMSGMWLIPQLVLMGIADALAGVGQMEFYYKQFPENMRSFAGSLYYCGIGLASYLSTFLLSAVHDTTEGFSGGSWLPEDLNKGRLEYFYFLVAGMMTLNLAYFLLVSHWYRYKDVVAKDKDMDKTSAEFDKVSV


Experiments:
AtNAT4 = target: T1, AtNAT4; experiment: uptake screen in Xenopus oocytes, LC-MS; type: cell-based; settings: pH 5.0; Kulori buffer; 0.5-1 mM loganin, 1 h
AtNPF2.9 = target: T2, AtNPF2.9; experiment: uptake screen in Xenopus oocytes, LC-MS; type: cell-based; settings: pH 5.0; Kulori buffer; 0.5-1 mM loganin, 1 h
[1] = substrate: COC(=O)C1=CO[C@@H](O[C@@H]2O[C@H](CO)[C@@H](O)[C@H](O)[C@H]2O)[C@@H]2[C@@H](C)[C@@H](O)C[C@H]12; experiment: uptake into Xenopus oocytes, LC-MS, Michaelis-Menten fit; type: cell-based, Catharanthus roseus; settings: pH 5.0, Kulori buffer, 12.5 µM to 2 mM loganin

uptake screen in Xenopus oocytes, LC-MS (AtNAT4) | uptake screen in Xenopus oocytes, LC-MS (AtNPF2.9) | Molecule | Km [1] [µM]
Two transporters were identified | initially screened cDNA library | COC(=O)C1=CO[C@@H](O[C@@H]2O[C@H](CO)[C@@H](O)[C@H](O)[C@H]2O)[C@@H]2[C@@H](C)[C@@H](O)C[C@H]12 [loganin, (1S,4aS,6S,7R,7aS)-6-hydroxy-7-methyl-1-[(2S,3R,4S,5S,6R)-3,4,5-trihydroxy-6-(hydroxymethyl)oxan-2-yl]oxy-1,4a,5,6,7,7a-hexahydrocyclopenta[c]pyran-4-carboxylate] | –
– | – | CrNPF2.4 (Catharanthus roseus) (protein, full-length, Gateway cloned from C. roseus cDNA into pOO2-GW, cRNA expressed in Xenopus laevis oocytes) MAEKSSSIDATENGFVKIKEPNHRGVKAMPFIVGNETFEKLGTLGTSANLLIYLTTVFHMKSITATNLINIFNGTCNFGTLLGAFFSDTYFGRYKTLGFASVSSTLGMLILTLTAAISKLHPPSCEKNSKACSGPTSGQFAFLFTAFLFLIIGASGIRPCNLAFGADQFNPNTESGRKGTNSFFNWYYFTFTFAMMVSLTVIVYVQSSISWALGLAIPTFLMLLSCVFFFVGSRIYVKVLPEGSPLTSMMQVIVAAFRKRKLNLPDHQPWDSLFNYISPSSINSKLSYTDQFRWLNKAAIKTSKDHLYAEGSTANPWRLCSMQQVEEVKCVIRSIPIWTSGVLYYVVLNQMSTYLVFQALQSDRRIGKTNFKIPAASYTVFSMLSLSIWIPIYDRIIVPFLRKITKTEQGITILQKMGFGLVIAVITMVVSAIIEDKRRVIALTRPIVGIEERKGGISSLSGFWLVPQLALAGISEAFTVIAQVEFFYKQFPENMRSFGGSFLFCGFAISSYLSSFLISIVHKVTRNSSGGNWLDEDLNKARLDYFYYLVAGLEVLNFGYFLVCAHWYRYKETQSGNEIAMEQILDEPKKNLDVV | 237 ± 35
– | – | CrNPF2.6 (Catharanthus roseus) (protein, full-length, Gateway cloned from C. roseus cDNA into pOO2-GW, cRNA expressed in Xenopus laevis oocytes) MEKNEKLVPNGTKEDGKVAAKNEPNYRGIKAMPFVLGNETCEKLGTIGTSSNLSVYLSTVFHMNTMSANNVINIFNGTCYLGSLVGAFLCDTYFGRYKTLGLGSVASFLGMLMLTLTAAISTLHPTNCDNSGDCKGPSAGQMAFLVGGFVLMVIGASGIRPCNLAFGADQFNPNTESGRRGINSFFNWYYFTYTFAVMVSATIIVYVQSDISWSIGFAIPTSLMFLSCALFFAGTWLYVKVLPQGSPMTSLVQVIVVSVKKRRLKLPGEPSLLFNHIPSNAINSKLPRTNNFRFLDKAAILTPEDKVNPDGSAANKWKLCSIQQVEEVKCVLRVLPIWIAGVIFQISVTQQSNYVPFQAFQSDRHLIKGNKFQIPAGTYNVFSMLALTIWLPIYDRIIIPLLRRWTKKEDGITLLQRMGVGIVLSILSMLVSALVESRRRNLALTRPTLGIQEGQGSISSMSALWFVPQLALMGLAEGFTFIGENELFYKEFPENMRSIAASLVLCGVAVASYLTSFIAEIVHKTTRSGTRDWLAQDLNKARLDYFFYMVAVLEALNLVYFLVCAKWYRYKGTGDLGKLEVAMEKLETEKHLV | 60 ± 5
– | – | CrNPF2.5 (Catharanthus roseus) (protein, full-length, Gateway cloned from C. roseus cDNA into pOO2-GW, cRNA expressed in Xenopus laevis oocytes) MEENQEHKAIKNHEPNYRGIKAMPFVIGNETFEKLGTIGTSTNLLIYLTSVFHMKTITATNLVNIFNGTCNFGTLVGAFLCDTYFGRYNTLGFASVSSFLGMLVLTLTAAIKNLHPEACGNEEGSKCISPSGGQMAFLLSGFAFLIVGASGIRPCNLAFGADQFNPNTDSGRRGINSFFNWYYFTYTFAMMVSLTIIVYVQSNISWSIGLAIPTFLMFLSCATFFVGTRIYVRVLPEGSPLISVARVIVSAFKKRKLELPDEPKLSLFNHSASSTSSINSKISYTDQFRFLNKAAIITSEDEFNSDGSVKNPWRICTIQQVEEVKCLLKLIPVWISCIIYYISVVQQQNYVVFQALQSDRRLFGTSKFKIPAASYIVIAMLALTIWIPIFDRIIVPCLQKITGKEGGITILQRMGIGMVLSVLTMITSALVESKRRKFALNRPTLGFEPRKGAISSMSGVWLIPQLALSGLSEAFTIIGENELFYKECPENMRSIAMALVFVGFAGSSYLSSLLSSIVQKTTGGNESWLAEDLNRGRLDYFYYLIGALETLNLIYFLVCSKWYKYKQVEKIPQVAMEKLNNVEEKSLV | 387 ± 57
